Results on 1 molecule are retold here after patent US20120184016A1, “NOVEL PROTEIN AND GENE THAT CODES THEREFOR” (priority 2009, published 2012).

Data set [1] can be described thus: Optimum pH and optimum temperature for sialyltransferase enzyme activity. It is filed as biochemical. The following applies: purified enzyme. The source says: The optimum pH and the optimum temperature of the recombinant β-galactoside-α2,6-sialyltransferase SHIZ119-N1C0 derived from the JT-SHIZ-119 strain were investigated using the purified enzyme prepared in Example 3.
Acetate buffer (pH 4.0 to 5.0), cacodylate buffer (pH 5.0 to 6.0), Bis-Tris buffer (pH 6.0 to 7.0), phosphate buffer (pH 7.0 to 8.0), TAPS buffer (pH 8.0 to 9.0), CHES buffer (pH 9.0 to 10.0), and CAPS buffer (pH 10.0 to 11.0) were each prepared and were used for enzyme activity measurement at 30° C. at various pH levels.
The enzyme activity was measured at every increment of 5° C. starting from 5° C. up to 50° C. using cacodylate buffer (pH 5.0).

Data set [2] deals with JT-SHIZ-119-derived recombinant β-galactoside-α2,6-sialyltransferase N1C0 (neuraminidase activity). The experiment in a line: Substrate specificity of neuraminidase activity with PA-sugar chains, HPLC. It is filed as biochemical, Photobacterium leiognathi strain JT-SHIZ-119. The following applies: PA-sugar chains with α2,3-, α2,6- or α2,8-linked sialic acid; 30° C. for 18 hours. The protocol: The substrate specificity of neuraminidase, that is, the linkage mode of sialic acid to a sugar chain that is cleaved by the neuraminidase can be determined by, but not limited to, a method using a pyridylaminated sugar chain. More specifically, the enzyme reaction by neuraminidase is performed using PA sugar chains in which sialic acid is linked by α2,3-linkage, α2,6-linkage, or α2,8-linkage (for example, pyridylaminated sugar chains such as PA-Sugar Chain 029, PA-Sugar Chain 023, and PA-Sugar Chain 034 available from Takara Bio Inc.). The reaction product is analyzed by high performance liquid chromatography, and the amount of sialic acid that was cleaved is calculated from the retention time and peak area of the reaction product.
To reveal the specificity of the neuraminidase activity of the JT-SHIZ-119-derived recombinant β-galactoside-α2,6-sialyltransferase N1C0, reactions using a PA-sugar chain shown in Table 4, to which sialic acid is linked via α2,3-, α2,6-, or α2,8-linkage (PA-Sugar Chain 029, PA-Sugar Chain 023, or PA-Sugar Chain 034, manufactured by Takara Bio Inc.) as a substrate were performed.
To a purified enzyme solution of the JT-SHIZ-119-derived recombinant β-galactoside-α2,6-sialyltransferase N1C0 (equivalent to 0.6 U as sialyltransferase activity), 1.5 μL of a 10 pmol/μL PA-sugar chain was added, followed by reaction at 30° C. for 18 hours. After completion of the reaction, the reaction solution was treated at 100° C. for 2 minutes to inactivate the enzyme, followed by HPLC to analyze the reaction product. In the case of using PA-Sugar Chain 023 as the substrate, the pyridylaminated sugar chain was eluted and analyzed under the same conditions as those in Example 1. In the case of using PA-Sugar Chain 029 or PA-Sugar Chain 034 as the substrate, the elution was performed using eluent A (100 mM acetate-triethylamine, pH 5.0) and eluent B (100 mM acetate-triethylamine containing 0.5% n-butanol, pH 5.0) with a linear gradient of 0 to 100% eluent B (0 to 35 min), 100% eluent B (35 to 50 min), and then a linear gradient of 100% to 30% eluent B (51 to 75 min). The analysis was performed under the conditions of Example 1. FIGS. 3-2 to 3-8 show the results.

B1: SHIZ119-N1C0 (protein)
chain: MCNDNQNTVDVVVSTVNDNVIENNTYQVKPIDTPTTFDSYSWIQTCGTPILKDDEKYSLSFDFVAPELDQDEKFCFEFTGDVDGKRYVTQTNLTVVAPTLEVYVDHASLPSLQQLMKIIQQKNEYSQNERFISWGRIGLTEDNAEKLNAHIYPLAGNNTSQELVDAVIDYADSKNRLNLELNTNTAHSFPNLAPILRIISSKSNILISNINLYDDGSAEYVNLYNWKDTEDKSVKLSDSFLVLKDYFNGISSEKPSGIYGRYNWHQLYNTSYYFLRKDYLTVEPQLHDLREYLGGSLKQMSWDGFSQLSKGDKELFLNIVGFDQEKLQQEYQQSELPNFVFTGTTTWAGGETKEYYAQQQVNVVNNAINETSPYYLGREHDLFFKGHPRGGIINDIILGSFNNMIDIPAKVSFEVLMMTGMLPDTVGGIASSLYFSIPAEKVSFIVFTSSDTITDREDALKSPLVQVMMTLGIVKEKDVLFWSDLPDCSSGVCIAQY
modifications: beta-galacoside-alpha-2,6-sialyltransferase from phorobacterium leiognathi (without signal peptide)
On to B1, for which the “pH at which sialyltransferase enzyme activity is the highest (optimum pH)” value in data set [1] (30° C., pH 4.0 to 11.0, FIG. 2-1) worked out at 5.0. In data set [1] (cacodylate buffer (pH 5.0), 5° C. up to 50° C., FIG. 2-2), the “temperature at which sialyltransferase enzyme activity is the highest (optimum temperature)” value turned out to be 35 °C. Also, the “specificity of neuraminidase activity (linkage mode)” value in data set [2] is listed as “specific to sialic acid of α2,6-linkage”.
